Test results published in article PMC3119050, “High-Resolution X-Ray Structure of the Trimeric Scar/WAVE-Complex Precursor Brk1” (PLoS ONE, 2011).

T1: Scar(1-225)/AbiA(1-149)/DdBrk1-complex (Dictyostelium discoideum, UniProt Q54NF8 1-225; Q55FT9 1-149; Q54X65 1-68)
T1 construct: AbiA (Abi) of Dictyostelium discoideum, residues 1-149, untagged; remnant after PreScission cleavage; Brk1 of Dictyostelium discoideum, 68 residues; In the exchange experiment the unlabelled DdBrk1 chain of this complex is replaced by DdBrk1_488; also called Scar/AbiA/DdBrk1 subcomplex; source: E. coli BL21 DE3, coexpressed, purified (glutathione sepharose, PreScission cleavage, Superdex-S75); …
T1 sequence 1: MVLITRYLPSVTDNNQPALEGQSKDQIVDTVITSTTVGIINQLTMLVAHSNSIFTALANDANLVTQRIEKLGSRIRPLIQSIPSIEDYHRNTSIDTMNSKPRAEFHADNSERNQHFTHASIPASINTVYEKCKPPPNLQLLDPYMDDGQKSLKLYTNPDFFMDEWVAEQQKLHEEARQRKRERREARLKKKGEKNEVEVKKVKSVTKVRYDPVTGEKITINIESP
T1 sequence 2: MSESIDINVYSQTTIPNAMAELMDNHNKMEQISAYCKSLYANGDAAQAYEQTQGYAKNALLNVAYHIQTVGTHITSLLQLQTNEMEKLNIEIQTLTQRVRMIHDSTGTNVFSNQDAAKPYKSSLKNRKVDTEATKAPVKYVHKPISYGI
T1 sequence 3: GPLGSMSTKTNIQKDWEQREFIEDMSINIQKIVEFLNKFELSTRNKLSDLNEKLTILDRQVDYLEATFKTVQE


Legend:
[1] = biological target: the molecule itself; test: AUC; sedimentation equilibrium, 43 µM and 171 µM DdBrk1, PBS, 10°C, 18,000 and 26,000 rpm, absorbance at 280 nm, global fit with a single species
[2] = biological target: the molecule itself; test: AUC; sedimentation velocity with fluorescence detection, 8 to 800 nM DdBrk1_488, PBS, 20°C, 50,000 rpm; trimer to monomers
[3] = biological target: T1, Scar(1-225)/AbiA(1-149)/DdBrk1-complex; test: SEC; 100 nM DdBrk1_488 incubated with the unlabelled complex (1.4 µM MBP-DdBrk1) for two hours on ice; Superdex-S200 10/300, PBS, 4°C, absorbance at 488 nm and 280 nm; details: both partners purified

binding result [3] | Binder | stoichiometry N [1] | stoichiometry N [2]
 | Dictyostelium discoideum Brk1 (DdBrk1), GST tag removed (natural protein, extra amino acids left at the N-terminus after PreScission cleavage of the GST tag; Brk1 (HSPC300 ortholog) of Dictyostelium discoideum, 68 residues; Calculated molar mass 8.61 kg/mol per chain; homotrimer by sedimentation equilibrium; also called DdHSPC300; HSPC300; source: E. coli BL21 DE3, purified (glutathione sepharose, PreScission cleavage, Mono Q, Superdex-S75); not shown: GST, N-terminal, …) GPLGSMSTKTNIQKDWEQREFIEDMSINIQKIVEFLNKFELSTRNKLSDLNEKLTILDRQVDYLEATFKTVQE | 3 | 
binds | DdBrk1_488 (DdBrk1 mutant M1C labelled with Alexa 488) (natural protein, Dictyostelium discoideum, Alexa 488 (Alexa-488 Fluor C5 maleimide) on the cysteine that replaces methionine 1, extra amino acids left at the N-terminus after PreScission cleavage of the GST tag; Brk1 of Dictyostelium discoideum, 68 residues, first methionine replaced by cysteine; Trimer at the highest concentrations examined; dissociates in the lower nanomolar range; also called DdBrk1 M1C; DdBrk1_M1C; not shown: GST, N-terminal, cleaved) GPLGSCSTKTNIQKDWEQREFIEDMSINIQKIVEFLNKFELSTRNKLSDLNEKLTILDRQVDYLEATFKTVQE |  | 3
